In article PMC4519933, “Crystal Structure of a Hidden Protein, YcaC, a Putative Cysteine Hydrolase from Pseudomonas aeruginosa, with and without an Acrylamide Adduct” (International Journal of Molecular Sciences, 2015):

B1: Pseudomonas aeruginosa YcaC, crystal form I (Cys118 linked to propanamide) (enzyme, P. aeruginosa (endogenous in PADD1976), UniProt Q9I4D6 2-205, looked up)
chain: SFTYKRLDKNDAAVLFVDHQAGLLSLVRDFSPDEFKNNVLALADIARFFNLPTILTTSFEDGPNGPLVPELKEMFPQAPYIARPGNINAWDNEDFVKAVKATGKKQLIIAGVVTDVCVAFPTLSALEEGFDVFVVTDASGTFNPVVRDAAWARMTAAGAQLMNWFSVGCELHRDWRNDIEGFGAILGGHLPAYANLIQSFGTKK
modifications: Cys118 linked to a propanamide (acrylamide adduct); bacteria grown in minimal media with L-selenomethionine (SeMet)
notes: monomer 205 residues, 22.5 kDa; the N-formylmethionine appears to have been cleaved off; residues 204 and 205 disordered in the crystal; Not cloned: crystallised as a contaminant of a SeMet PlcHR2 preparation; identity found by molecular replacement and side chain densities; also called Pa YcaC; PA1202
B2: Pseudomonas aeruginosa YcaC, crystal form II (Cys118 as S-mercaptocysteine) (enzyme, P. aeruginosa (endogenous in PADD1976), UniProt Q9I4D6 2-205, looked up)
chain: B1 chain
modifications: Cys118 covalently modified to S-mercaptocysteine; bacteria grown in minimal media with L-selenomethionine (SeMet)
notes: monomer 205 residues, 22.5 kDa; the N-formylmethionine appears to have been cleaved off; residues 204 and 205 disordered in the crystal; Same protein and preparation route as m1; differs in the modification of Cys118 seen in the crystal; also called Pa YcaC; PA1202

Key:
[1] = molecular target: the molecule itself; assay: crystal structure; crystal form I, space group C2, 2.34 Å; 9 mg/mL SeMet PlcHR2 preparation in 50 mM NaCl, 50 mM Tris-HCl pH 7.4, 0.1 mM TCEP; reservoir 26% PEG 3350, 400 mM (NH4)2SO4, 70 mM bis-Tris-HCl pH 6.75, 2,5-hexanediol additive; eight chains in the asymmetric unit
[2] = molecular target: the molecule itself; assay: crystal structure; crystal form II, space group P21, 2.56 Å; 5.3 mg/mL SeMet PlcHR2 preparation in 50 mM NaCl, 5 mM MgCl2, 50 mM Tris-HCl pH 7.4, 0.1 mM TCEP; reservoir 20% PEG 3350, 200 mM Na malonate, 100 mM MES-NaOH pH 6.75; eight chains in the asymmetric unit

Row | Protein | stoichiometry N [1] | stoichiometry N [2]
1 | B1 | 8 | –
2 | B2 | – | 8
